Experimental findings from patent US20210301021A1 (NANJING GENSCRIPT BIOTECH, published 2021) are described below.

Some results are limits rather than exact numbers.

The target in assay [1] is T1, CTLA4/His (human, UniProt P16410 36-161).
T1 construct: not shown: His tag
T1 sequence (looked up): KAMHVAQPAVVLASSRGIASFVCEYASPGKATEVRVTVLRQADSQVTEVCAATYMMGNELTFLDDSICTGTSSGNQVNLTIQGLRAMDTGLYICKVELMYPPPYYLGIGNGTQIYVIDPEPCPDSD
The assay can be described thus: SPR (Biacore), untreated control of the oxidation pressure test, analyte CTLA4/His.

Assay [2] has as its target T2, CTLA-4 on the functional cells of the Promega anti-CTLA-4 blocking assay kit (UniProt P16410 36-223, limits assumed).
T2 sequence (looked up): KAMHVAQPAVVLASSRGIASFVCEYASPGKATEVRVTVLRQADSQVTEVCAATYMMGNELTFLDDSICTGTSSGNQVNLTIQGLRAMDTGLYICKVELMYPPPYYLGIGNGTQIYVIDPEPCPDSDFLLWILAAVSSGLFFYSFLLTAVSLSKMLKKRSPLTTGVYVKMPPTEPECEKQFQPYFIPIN
Description: cell-based or functional assay.

The target of assay [3] is T1, CTLA4/His. Description: SPR, Biacore 8K, antibody captured on the chip, antigen as analyte, 1:1 binding model.
For assay [4], the target named is T1, CTLA4/His. Description: SPR, Biacore 8K, antibody captured on the chip, antigen as analyte, 1:1 binding model; chimeric antibody, analyte CTLA4/His (Table 4).
Assay [5] deals with T1, CTLA4/His. The assay can be described thus: SPR, Biacore 8K, antibody captured on the chip, antigen as analyte, 1:1 binding model; Table 4, analyte CTLA4/His; Rmax 38.2, Chi^2 5.48E-02. For orientation: Surface plasmon resonance follows binding to a sensor surface in real time, without labels.

B1: Chimeric antibody (antibody, V domains shown)
VH: QVHLQQSGDVLVKPGASVNLSCKASGYTFTSYWINWIKQRPGQGLEWIGRIAPGSGTTYYNEMFTGKATLTVVTSSTTAYIQLSSLSFEDSAVYFCARGDYFDYWDQGTTLTVSS
VL: QIVLTQSPAIMSASPGGKVTITCSASKSVSYIHWFQQKPGTSPKLLIYDTSTLASGVPPRFSGSGSGPSYSLTISRMEAEDAATYYCQQRTTYPLTFGGGTKLEVR
notes: also called Chimeric IgG
In assay [1], B1 gave a Kd of 0.0219 nM, a koff of 8.16e-06 s⁻¹ and a kon of 372000 M⁻¹ s⁻¹. The “EC50 (µg/ml), luciferase reporter, Promega anti-CTLA-4 blocking assay (CD80/CD86 aAPC/Raji cells with functional cells expressing CTLA-4)” value in assay [2] is 3.96 µg/mL. In assay [3], this molecule gave a Kd of no more than 0.023 nM and a kon of 434000 M⁻¹ s⁻¹. The molecule further came in with a koff in assay [4] of no more than 1e-05 s⁻¹.

B2: AH01672 humanized anti-human CTLA4 monoclonal antibody (human IgG1/kappa) (antibody, V domains shown)
VH: QVQLVQSGAEVKKPGASVKVSCKASGYTFTSYWINWVKQAPGQGLEWMGRIAPGSGTTYYNEMFTGRVTMTRDTSTSTAYMELSSLRSEDTAVYYCARGDYFDYWDQGTMVTVSS
VL: DIQLTQSPSFLSASVGDRVTITCSASKSVSYIHWYQQKPGKAPKLLIYDTSTLASGVPPRFSGSGSGPEFSLTISSLQPEDFATYYCQQRTTYPLTFGGGTKLEIK
notes: also called AH1672
B2 yielded a kon in assay [5] of 690000 M⁻¹ s⁻¹. The “EC50 (µg/ml), luciferase reporter, Promega anti-CTLA-4 blocking assay (CD80/CD86 aAPC/Raji cells with functional cells expressing CTLA-4)” value in assay [2] is 7.31 µg/mL. In assay [3], the Kd is no more than 0.0145 nM and the koff is no more than 1e-05 s⁻¹.

As a reminder, the Kd is the constant that tells how readily two partners part at equilibrium. Higher therefore signals a looser complex. In general, koff refers to the rate constant with which the complex falls apart. The low end stands for a long-lived complex, the high end for a short-lived complex. For orientation: kon means a measure of how fast the partners come together. The low end stands for slower complex formation, the high end for faster complex formation.
